Laboratory results reported in PMC10394066, “Polymorphic amyloid nanostructures of hormone peptides involved in glucose homeostasis display reversible amyloid formation” (Nature Communications, 2023).
Non-standard residues stand in square brackets, D forms with d. No end group written: not given here. pGlu = O=C1CC[C@@H](C(=O)O)N1

Columns and labels:
[1] = molecular target: the molecule itself; assay: crystal structure; amyloid-like single crystals grown from peptide solutions (water, water/ACN/TFA, water/EtOH or 0.1 M citrate pH 4.0; pH 2-7; 4-37 °C; conditions of each polymorph in Table 1); data at 100 K, Cu Kα
[2] = molecular target: the molecule itself; assay: far-UV CD; 0.15–0.20 mM peptide in distilled water, acidic pH set with HCl/NaOH, stirred 500–600 rpm at 37 °C, measured at 0–168 h at 25 °C; U to β/β’-type spectral shift
[3] = molecular target: the molecule itself; assay: far-UV CD; 0.15–0.20 mM peptide in distilled water, physiological pH and above (above pH 5), stirred 500–600 rpm at 37 °C, measured at 25 °C for up to weeks
[4] = molecular target: the molecule itself; assay: FTIR; 6 mM peptide in water, pH adjusted from 7.2 to 4.2; amide I band 1625–1630 cm^−1; bio-ATR cell

B1: APR^GLP2 hexapeptide DFINWL (aggregation-prone region of glucagon-like peptide 2) (peptide)
peptide: DFINWL
notes: aggregation-prone hexapeptide segment of human glucagon-like peptide 2 (GLP-2); free termini (no terminal protection); also called DFINWL (GLP-2); source: synthetic peptide (flow solid-phase synthesis, Fmoc/tBu; RP-HPLC purified)
- binding result [1]: binds

B2: Ac-EFIAWL (N-terminally acetylated APR^GLP1) (peptide)
peptide: Ac-EFIAWL
notes: aggregation-prone hexapeptide segment of human GLP-1, N-terminally acetylated; also called Ac-EFIAWL (GLP-1); source: synthetic peptide
- binding result [2]: binds

B3: APR^Tc5b hexapeptide LYIQWL (synthetic exendin-like APR of the de novo designed Tc5b and E19) (peptide)
peptide: LYIQWL
notes: hexapeptide segment of the de novo designed Trp-cage exendin derivatives Tc5b and E19; non-natural, no acidic side chain; also called LYIQWL (Tc5b, E19); source: synthetic peptide (flow solid-phase synthesis, Fmoc/tBu; RP-HPLC purified)
- binding result [3]: binds

B4: APR^GLP1 hexapeptide EFIAWL (aggregation-prone region of glucagon-like peptide 1) (peptide)
peptide: EFIAWL
notes: aggregation-prone hexapeptide segment of human glucagon-like peptide 1 (GLP-1); source: synthetic peptide (flow solid-phase synthesis, Fmoc/tBu; RP-HPLC purified)
- binding result [4]: binds

B5: pEFIAWL (APR^GLP1 with N-terminal pyroglutamic acid) (peptide)
peptide: [pGlu]FIAWL
notes: aggregation-prone hexapeptide segment of human GLP-1; residue 1 is pyroglutamic acid; Both EFIAWL and pEFIAWL were present in the crystallization samples; the crystal holds pEFIAWL; also called pEFIAWL (GLP-1); APR^GLP1 (in the crystal); source: formed from synthetic EFIAWL by spontaneous ring closure in the crystallization sample (pH ≈ 2, 37 °C)
- binding result [1]: binds
